{"source": "patent US20180223372A1", "about": "“IDENTIFICATION OF PREDICTIVE BIOMARKERS ASSOCIATED WITH WNT PATHWAY INHIBITORS” (OncoMed Pharmaceutical, Inc., priority 2015, published 2018)", "key": {"OMP-LU56 lung tumor": {"tested_on": "OMP-LU56 lung tumor", "experiment": "OMP-LU56 NSCLC xenograft, OMP-18R5 vs control antibody", "format": "in vivo, NOD/SCID mice", "conditions": "OMP-LU56 carcinoma; 15-20 mg/kg intraperitoneally weekly; tumor volume vs control antibody", "description": "(§1) The non-small cell lung cancer (NSCLC) tumor xenograft models OMP-LU02, OMP-LU11, OMP-LU24, OMP-LU25, OMP-LU33, OMP-LU45, and OMP-LU56 (and other OncoMed models described herein) were established at OncoMed Pharmaceuticals from minimally passaged, patient-derived tumor specimens. The tumor specimens were examined by a pathologist and classified as lung tumors. OncoMed relies on these classifications unless further analyses are done on any specific tumor and a reclassification is deemed necessary. […] Tumor-bearing mice were randomized into groups (n=8-10 per group) and treated with control antibody or anti-FZD antibody OMP-18R5. The antibodies were dosed at 15-20 mg/kg and were administered intraperitoneally on a weekly basis. […] Data are expressed as mean±S.E.M.\n(§2) To determine if a tumor was responsive to anti-FZD antibody OMP-18R5, tumor volume data from mice treated with the control antibody were compared with tumor volume data from mice treated with OMP-18R5."}, "OMP-LU24 lung tumor": {"tested_on": "OMP-LU24 lung tumor", "experiment": "OMP-LU24 NSCLC xenograft, OMP-18R5 vs control antibody", "format": "in vivo, NOD/SCID mice", "conditions": "OMP-LU24 squamous cell carcinoma; 15-20 mg/kg intraperitoneally weekly; tumor volume vs control antibody", "description": "as §1, §2"}, "OMP-LU33 lung tumor": {"tested_on": "OMP-LU33 lung tumor", "experiment": "OMP-LU33 NSCLC xenograft, OMP-18R5 vs control antibody", "format": "in vivo, NOD/SCID mice", "conditions": "OMP-LU33 carcinoma; 15-20 mg/kg intraperitoneally weekly; tumor volume vs control antibody", "description": "as §1, §2"}, "OMP-LU25 lung tumor": {"tested_on": "OMP-LU25 lung tumor", "experiment": "OMP-LU25 NSCLC xenograft, OMP-18R5 vs control antibody", "format": "in vivo, NOD/SCID mice", "conditions": "OMP-LU25 large cell carcinoma; 15-20 mg/kg intraperitoneally weekly; tumor volume vs control antibody", "description": "as §1, §2"}, "OMP-LU45 lung tumor": {"tested_on": "OMP-LU45 lung tumor", "experiment": "OMP-LU45 NSCLC xenograft, OMP-18R5 vs control antibody", "format": "in vivo, NOD/SCID mice", "conditions": "OMP-LU45 adenocarcinoma; 15-20 mg/kg intraperitoneally weekly; tumor volume vs control antibody", "description": "as §1, §2"}, "OMP-LU02 lung tumor": {"tested_on": "OMP-LU02 lung tumor", "experiment": "OMP-LU02 NSCLC xenograft, OMP-18R5 vs control antibody", "format": "in vivo, NOD/SCID mice", "conditions": "OMP-LU02 adenocarcinoma; 15-20 mg/kg intraperitoneally weekly; tumor volume vs control antibody", "description": "as §1, §2"}, "[1]": {"tested_on": "genes in the Wnt, Notch, and stem cell pathways; Wnt pathway target genes including AXIN2 and LEF1", "experiment": "pharmacodynamics (PD) biomarker analysis", "format": "in vivo", "conditions": "data not shown", "protocol": "In addition, a pharmacodynamics (PD) biomarker analysis was performed and confirmed inhibition of genes in the Wnt. Notch, and stem cell pathways by treatment with OMP-18R5."}, "OMP-LU11 lung tumor": {"tested_on": "OMP-LU11 lung tumor", "experiment": "OMP-LU11 NSCLC xenograft, OMP-18R5 vs control antibody", "format": "in vivo, NOD/SCID mice", "conditions": "OMP-LU11 squamous cell carcinoma; 15-20 mg/kg intraperitoneally weekly; tumor volume vs control antibody", "description": "as §1, §2"}}}
{"molecule": "OMP-18R5: anti-FZD IgG2 antibody binding FZD1, FZD2, FZD5, FZD7, FZD8; ATCC deposit PTA-9541; heavy/light chain SEQ ID NO:11 and 12 (antibody, Heavy chain amino acid sequence; Light chain amino acid sequence) heavy: EVQLVESGGGLVQPGGSLRLSCAASGFTFSHYTLSWVRQAPGKGLEWVSVISGDGSYTYYADSVKGRFTISSDNSKNTLYLQMNSLRAEDTAVYYCARNFIKYVFANWGQGTLVTVSSASTKGPSVFPLAPCSRSTSESTAALGCLVKDYFPEPVTVSWNSGALTSGVHTFPAVLQSSGLYSLSSVVTVPSSNFGTQTYTCNVDHKPSNTKVDKTVERKCCVECPPCPAPPVAGPSVFLFPPKPKDTLMISRTPEVTCVVVDVSHEDPEVQFNWYVDGVEVHNAKTKPREEQFNSTFRVVSVLTVVHQDWLNGKEYKCKVSNKGLPAPIEKTISKTKGQPREPQVYTLPPSREEMTKNQVSLTCLVKGFYPSDIAVEWESNGQPENNYKTTPPMLDSDGSFFLYSKLTVDKSRWQQGNVFSCSVMHEALHNHYTQKSLSLSPGK light: DIELTQPPSVSVAPGQTARISCSGDNIGSFYVHWYQQKPGQAPVLVIYDKSNRPSGIPERFSGSNSGNTATLTISGTQAEDEADYYCQSYANTLSLVFGGGTKLTVLGQPKAAPSVTLFPPSSEELQANKATLVCLISDFYPGAVTVAWKADSSPVKAGVETTTPSKQSNNKYAASSYLSLTPEQWKSHRSYSCQVTHEGSTVEKTVAPTECS", "values": [{"measurement": "Classification", "setting": "OMP-LU56 lung tumor", "result": "Non-responder"}, {"measurement": "Classification", "setting": "OMP-LU24 lung tumor", "result": "Responder"}, {"measurement": "Classification", "setting": "OMP-LU33 lung tumor", "result": "Responder"}, {"measurement": "Classification", "setting": "OMP-LU25 lung tumor", "result": "Non-responder"}, {"measurement": "Classification", "setting": "OMP-LU45 lung tumor", "result": "Non-responder"}, {"measurement": "Classification", "setting": "OMP-LU02 lung tumor", "result": "Non-responder"}, {"measurement": "Wnt pathway target genes including AXIN2 and LEF1", "setting": "[1]; OMP-18R5 as a single agent", "result": "down-regulated significantly"}, {"measurement": "genes in the Wnt, Notch, and stem cell pathways", "setting": "[1]; treatment with OMP-18R5", "result": "inhibition"}, {"measurement": "Classification", "setting": "OMP-LU11 lung tumor", "result": "Responder"}]}
